One block for each binder: values may come before it.
What was measured:
hGUCY2C ECD-His [1] = molecular target: T1, hGUCY2C ECD-His (human, UniProt P25092 24-430); assay: SPR Biacore, antibody captured
T1 construct: also called human GUCY2C protein

hGUCY2C ECD-His [2] = molecular target: T1, hGUCY2C ECD-His; assay: competition ELISA, row antibody coated; competitor 1608-biotinylated
hGUCY2C ECD-His [3] = molecular target: T1, hGUCY2C ECD-His; assay: competition ELISA, row antibody coated; competitor 81 L3H1-biotinylated
hGUCY2C ECD-His [4] = molecular target: T1, hGUCY2C ECD-His; assay: competition ELISA, row antibody coated; competitor 146 L1H1-biotinylated
hGUCY2C ECD-His [5] = molecular target: T1, hGUCY2C ECD-His; assay: competition ELISA, row antibody coated; competitor P3-C7 L7H1-biotinylated
[6] = molecular target: T2, Human GUCY2C protein on cells (HCT116/hGUCY2C, HT-55, T84, LS1034, LS174T) (human, UniProt P25092 24-1073); assay: flow cytometry on HCT116/hGUCY2C cells, PE anti-human IgG Fc secondary antibody
T2 construct: also called GUCY2C on the cell surface

[7] = molecular target: T2, Human GUCY2C protein on cells …; assay: as above; remark: listed apart in the source
[8] = molecular target: T2, Human GUCY2C protein on cells …; assay: cell-based or functional assay
hGUCY2C ECD-His [9] = molecular target: T1, hGUCY2C ECD-His; assay: ELISA, antigen on streptavidin plate
Description: In this test example, the binding activity of the GUCY2C-CD3 bispecific antibodies for human GUCY2C was detected by ELISA. The specific procedures are as follows:
The plate was coated by adding 100 ng of streptavidin (ACRO #STN-N5116) to the reaction wells and incubated overnight at 4° C. After the blocking with 1% BSA (PBS), 100 ng of hGUCY2C ECD-His was added, and the mixture was incubated at 37° C. for 1 h. After plate washing, the gradiently diluted antibody was added, and the mixture was incubated at 37° C. for 1 h. […] After plate washing, a substrate solution was added, and a stop solution was then added after sufficient color development to stop the reaction. The signal values at […] were read using a microplate reader.

[10] = molecular target: T2, Human GUCY2C protein on cells …; assay: flow cytometry on T84 cells, PE anti-human IgG Fc secondary antibody
[11] = molecular target: T2, Human GUCY2C protein on cells …; assay: cell-based or functional assay; remark: listed apart in the source
[12] = molecular target: T2, Human GUCY2C protein on cells …; assay: flow cytometry on HCT116/hGUCY2C cells, PE anti-human IgG Fc secondary antibody; remark: listed apart in the source

Kd (hGUCY2C ECD-His [1]): 0.92 nM | koff (hGUCY2C ECD-His [1]): 0.000117 s⁻¹ | kon (hGUCY2C ECD-His [1]): 127000 M⁻¹ s⁻¹ | relative competition coefficient (hGUCY2C ECD-His [2]): 12 | relative competition coefficient (hGUCY2C ECD-His [3]): 99 | relative competition coefficient (hGUCY2C ECD-His [4]): 100 | relative competition coefficient (hGUCY2C ECD-His [5]): 4 | EC50 (read off the curve) [6]: ~2 nM
B1: 146 L1H1 (antibody, human IgG1, kappa, V domains shown)
VH: EFQLVQSGAEVKKPGASVKVSCKASGYSFTDYNMNWVRQAPGQRLEWMGLINPKYGTTNYNQKFKGRVTLTVDQSSSTAYMELSSLRSEDTAVYYCARDNYPAWFAYWGQGTTVTVSS
VL: EIVLTQSPATLSLSPGERATLSCSASSSLNYMYWYQQKPGSSPRPWIYRTSQLASGVPARFSGSGSGTDYTLTISSLEPEDFAVYYCQQYHSYPPTFGGGTKVEIKR
notes: humanized, human IgG1/kappa

Kd (hGUCY2C ECD-His [1]): 37 nM | koff (hGUCY2C ECD-His [1]): 0.000245 s⁻¹ | kon (hGUCY2C ECD-His [1]): 6610 M⁻¹ s⁻¹ | EC50 (read off the curve) [7]: ~2 nM
B2: P3-F6 CHI (antibody, human IgG1, kappa, V domains shown)
VH: EVQLQQSGPELVKPGASVKISCKASGYTFTDYYMNWVKQSHGKSLEWIGDINPNNGGTSYNQKFKGKATLTVDKSSSTAYMELRSLTSEDSAVYYCARKTWLPYASVYWGQGTSVTVSS
VL: DVVMTQTPLSLPVSLGDQASISCRSSQSLVHSNGNTYLHWYLQKPGQSPKLLIYKVSNRFSGVPDRFSGSGSGTDFTLKISRVEAEDLGVYFCSQSTHVPPYTFGGGTKLEIKR
notes: chimeric

EC50 (hGUCY2C ECD-His [9]): 0.06 nM
B3: 146 L1H1-2 (bispecific antibody)
heavy 1: not shown
light 1: not shown
heavy 2: EFQLVQSGAEVKKPGASVKVSCKASGYSFTDYNMNWVRQAPGQRLEWMGLINPKYGTTNYNQKFKGRVTLTVDQSSSTAYMELSSLRSEDTAVYYCARDNYPAWFAYWGQGTTVTVSSGGGGSSGAPRFLTRPKASVVSVGKDATLSCQIVGNPFPQVSWEKDKQPVTAGVRFRLAQDGDLYRLKILDLQLSDSGQYVCRARNAHGEAFACLGLQVDAEADKTHTCPPCPAPEAAGGPSVFLFPPKPKDTLMISRTPEVTCVVVDVSHEDPEVKFNWYVDGVEVHNAKTKPREEQYNSTYRVVSVLTVLHQDWLNGKEYKCKVSNKALPAPIEKTISKAKGQPREPQVCTLPPSREEMTKNQVSLSCAVKGFYPSDIAVEWESNGQPENNYKTTPPVLDSDGSFFLVSKLTVDKSRWQQGNVFSCSVMHEALHNHYTQKSLSLSPGK
light 2: EIVLTQSPATLSLSPGERATLSCSASSSLNYMYWYQQKPGSSPRPWIYRTSQLASGVPARFSGSGSGTDYTLTISSLEPEDFAVYYCQQYHSYPPTFGGGTKVEIKGGGGSGIPPKIECLPIDISIDEGKVLTVASAFTGEPTPEVTWSTGGRKIHSQEQGRFHIENTDDSTTLTIKDVQKQDGGLYTLTLRNEFGSDSATVNIHIRSI
notes: GUCY2C-CD3, Format 2, CD3 arm S107E
IC50 (nM), killing of HT-55(++) with PBMC [8]: 0.56 nM | IC50 (nM), killing of LS174T(+) with PBMC [8]: 0.49 nM | IC50 (nM), killing of LS1034(+++) with PBMC [8]: 0.17 nM

Kd (hGUCY2C ECD-His [1]): 0.29 nM | koff (hGUCY2C ECD-His [1]): 5.19e-05 s⁻¹ | kon (hGUCY2C ECD-His [1]): 181000 M⁻¹ s⁻¹ | relative competition coefficient (hGUCY2C ECD-His [2]): 11 | relative competition coefficient (hGUCY2C ECD-His [3]): 100 | relative competition coefficient (hGUCY2C ECD-His [4]): 81 | relative competition coefficient (hGUCY2C ECD-His [5]): 3 | EC50 (read off the curve) [6]: ~1 nM
B4: 81 L3H1 (antibody, human IgG1, kappa, V domains shown)
VH: EVQLVQSGAEVKKPGASVKVSCKASGYTFTDHNMNWVKQAPGQRLEWMGVMNPKFGTINYNQKFKDKATITRDTSASTAYMELSSLRSEDTAVYYCARDNYPNYFDYWGQGTTVTVSS
VL: DIQLTQSPSFLSASPGDRVTITCSASSSVNYMYWYQQKPGSSPKSWIYRTSNLASGVPSRFSGSGSGTEYTLTISSLQPEDFATYYCQQYHDYPPTFGGGTKVEIKR
notes: humanized, human IgG1/kappa

Kd (hGUCY2C ECD-His [1]): 7.77 nM | koff (hGUCY2C ECD-His [1]): 0.000186 s⁻¹ | kon (hGUCY2C ECD-His [1]): 23900 M⁻¹ s⁻¹ | relative competition coefficient (hGUCY2C ECD-His [2]): 10 | relative competition coefficient (hGUCY2C ECD-His [3]): 6 | relative competition coefficient (hGUCY2C ECD-His [4]): 13 | relative competition coefficient (hGUCY2C ECD-His [5]): 100 | EC50 (read off the curve) [6]: ~2 nM
B5: P3-C7 L7H1 (antibody, human IgG1, kappa, V domains shown)
VH: EVQLVQSGAEVKKPGASVKVSCKASGYTFTDHYIHWVRQAPGQGLEWMGVINPYNDGATYNQKFKGRVTMTVDKSTSTVYMELSSLRSEDTAVYYCARPPRAYGNYAGYWGQGTTVTVSS
VL: DVVMTQTPLSLPVTPGEPASISCRSSQSLVHSNQNTYLHWYLQKPGQSPQLLIYKVSNRFSGVPDRFSGSGSRTDFTLKISRVEAEDVGVYYCSQSTHVPYTFGGGTKVEIKR
notes: humanized, human IgG1/kappa

Kd (hGUCY2C ECD-His [1]): 8.99 nM | koff (hGUCY2C ECD-His [1]): 0.000335 s⁻¹ | kon (hGUCY2C ECD-His [1]): 37300 M⁻¹ s⁻¹ | EC50 (read off the curve) [10]: ~0.5 nM
B6: M42 CHI (antibody, human IgG1, kappa, V domains shown)
VH: QIQLKQSGPGLVQPSQSLSITCTVSGFSLTSYAVHWVRQSPGKGLEWLGVIWTGGNTRSNAAFMSRLTITKDNSKSQVFFKMNSLQADDTAIYFCAKNSLLDYAMDYWGQGTSVTVSS
VL: ENVLTQSPVIMSASPGEKVTMTCRASSFVGSGYLHWYQQKSGASPKLWIYSTSKLASGVPARFSGSGSGTSFFLTISRVEIEDAAAYYCQQSSGYPLTFGGGSKLEIKR
notes: chimeric

Kd (hGUCY2C ECD-His [1]): 8.28 nM | koff (hGUCY2C ECD-His [1]): 0.000214 s⁻¹ | kon (hGUCY2C ECD-His [1]): 25800 M⁻¹ s⁻¹ | EC50 (read off the curve) [7]: ~2 nM
B7: P3-B4 CHI (antibody, human IgG1, kappa, V domains shown)
VH: QIQLVQSGPELKKPGEIVKISCKASGYTFTTYGMSWVKQAPGKGLKWMGWINTYSGVPTYADDFKGRFAFSLETSASTAYLQINNLKNEDTATYFCARRAGSSLYYYAMDYWGQGTSVTVSS
VL: QIVLTQSPAIMSASPGEKVTMTCSASSSVSYMLWYQQKSGTSPKRWIYDTSKLASGVPARFSGSGSGTSYSLTISSMEAEDAATYYCQQWSSNPPTFGGGTKLEIKR
notes: chimeric

Kd (hGUCY2C ECD-His [1]): 26.5 nM | koff (hGUCY2C ECD-His [1]): 0.000504 s⁻¹ | kon (hGUCY2C ECD-His [1]): 19000 M⁻¹ s⁻¹ | EC50 (read off the curve) [7]: ~1 nM
B8: P3-D9 CHI (antibody, human IgG1, kappa, V domains shown)
VH: EVQLVESGGGLVKPGGSLKLSCAASGFAFSDYGMHWVRQAPEKGLEWVAHISSGSSTIYYGDTVKGRFTISRDNAKNTLFLQMTSLRSEDTAMYYCTRSRNYYGSRVFDYWGQGTTLTVSS
VL: QIVLTQSPALMSVSPGEKVTMTCSASSSVSYMYWYQQKPRSSPKPWIYLTSSLASGVPARFSGSGSGTSYSLTINNVEAEDAATYYCQQWSSNPPTFGSGTKVEIKR
notes: chimeric

Kd (hGUCY2C ECD-His [1]): 4.49 nM | koff (hGUCY2C ECD-His [1]): 0.000228 s⁻¹ | kon (hGUCY2C ECD-His [1]): 50800 M⁻¹ s⁻¹ | EC50 (read off the curve) [10]: ~2 nM
B9: M61 CHI (antibody, human IgG1, kappa, V domains shown)
VH: EVQLQQSGPELVRPGASVKISCTASGYTITDYYMSWVKQSHGKSPEWIGDINPNNGGTSDNQKFKGKATLTVDKSSSTAYMEYRSLTSEDSAVYYCARGRGMVARYFDIWGTGTTVTVSS
VL: EILLTQSPTTMAASPGEKITITCSASSSISSNFLHWYQEKPGFSPKLLIYRTSNLASGVPARFSGSGSGTSYSLTIGSMEAEDVATYYCQQGSGLPLTFGAGTKLELKR
notes: chimeric

B10: P3-C7 L7H1-3 (bispecific antibody)
heavy 1: not shown
light 1: DVVMTQTPLSLPVTPGEPASISCRSSQSLVHSNQNTYLHWYLQKPGQSPQLLIYKVSNRFSGVPDRFSGSGSRTDFTLKISRVEAEDVGVYYCSQSTHVPYTFGGGTKVEIKGGGGSGIPPKIECLPIDISIDEGKVLTVASAFTGEPTPEVTWSTGGRKIHSQEQGRFHIENTDDSTTLTIKDVQKQDGGLYTLTLRNEFGSDSATVNIHIRSI
heavy 2: not shown
light 2: not shown
IC50 (nM), killing of LS174T with PBMC [11]: 0.49 nM

relative competition coefficient (hGUCY2C ECD-His [2]): 100 | relative competition coefficient (hGUCY2C ECD-His [3]): 6 | relative competition coefficient (hGUCY2C ECD-His [4]): 12 | relative competition coefficient (hGUCY2C ECD-His [5]): 3 | EC50 (read off the curve) [6]: ~0.3 nM | EC50 (read off the curve) [12]: ~0.3 nM | EC50 (read off the curve) [7]: ~0.3 nM
B11: 1608 (antibody, human IgG1, kappa, V domains shown)
VH: EVQLVESGGGLVQPGGSLRLSCAASGFTFSSYWMHWVRQAPGKGLEWIGEIKPSNELTNVHEKFKDRFTISVDKAKNSAYLQMNSLRAEDTAVYYCTRTITTTEGYWFFDVWGQGTLVTVSS
VL: DIQLTQSPSSLSASVGDRVTITCRASESVDYYGSSLLQWYQQKPGKAPKLLIYAASKLASGVPSRFSGSGSGTDFTLTISSLQPEDFATYYCQQTRKAYTFGQGTKLEIKR

— patent US20260028421A1 (JIANGSU HENGRUI PHARMACEUTICALS, published 2026)
